The target of experiment [1] is T1, human HER3 ECD as shown in SEQ ID NO: 23 (human, UniProt P21860 20-643).
T1 construct: also called soluble HER3-ECD
Kind of experiment: SPR (Biacore), antibody captured on Protein A, soluble HER3-ECD as analyte, 37°C, 1:1 model. On the technique in general: Surface plasmon resonance follows binding to a sensor surface in real time, without labels.

Experiment [2] addresses T2, Rhesus mature HER3-ECD (rhesus monkey, UniProt H9ERZ8 20-643).
T2 construct: extracellular domain; Bought protein; also called Rhesus HER3-ECD; cynomolgus monkey HER3-ECD
Described as above.

Experiment [3] addresses T3, mouse mature HER3 ECD as shown in SEQ ID NO: 24 (mouse, UniProt Q61526 20-641).
T3 construct: also called mouse HER3 ECD; mouse soluble HER3-ECD
The description is as above.

Experiment [4] addresses T1, human HER3 ECD as shown in SEQ ID NO: 23. Description: SPR (Biacore), antibody captured on Protein A, soluble HER3-ECD as analyte.
Experiment [5] has as its target T2, Rhesus mature HER3-ECD. Described as above.
The target of experiment [6] is T3, mouse mature HER3 ECD as shown in SEQ …. Described as above.

T2 sequence (H9ERZ8 entry or part of it): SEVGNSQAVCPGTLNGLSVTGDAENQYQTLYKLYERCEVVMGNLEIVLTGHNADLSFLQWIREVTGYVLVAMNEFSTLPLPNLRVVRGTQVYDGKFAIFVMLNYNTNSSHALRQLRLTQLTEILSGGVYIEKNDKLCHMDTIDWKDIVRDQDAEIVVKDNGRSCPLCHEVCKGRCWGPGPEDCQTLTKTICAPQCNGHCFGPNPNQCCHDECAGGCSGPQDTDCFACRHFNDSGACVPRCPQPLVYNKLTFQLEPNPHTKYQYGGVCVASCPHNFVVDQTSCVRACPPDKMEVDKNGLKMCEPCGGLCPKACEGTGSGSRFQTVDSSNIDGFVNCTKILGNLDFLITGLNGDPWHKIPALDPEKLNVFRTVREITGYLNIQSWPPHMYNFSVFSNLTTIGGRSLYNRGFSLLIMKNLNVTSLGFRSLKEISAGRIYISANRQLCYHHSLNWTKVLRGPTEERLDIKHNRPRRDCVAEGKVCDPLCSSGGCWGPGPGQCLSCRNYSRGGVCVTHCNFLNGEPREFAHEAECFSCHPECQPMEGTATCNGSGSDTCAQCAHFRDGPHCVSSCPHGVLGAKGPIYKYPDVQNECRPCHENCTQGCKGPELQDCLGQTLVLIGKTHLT
T3 sequence (Q61526 20-641 limits assumed): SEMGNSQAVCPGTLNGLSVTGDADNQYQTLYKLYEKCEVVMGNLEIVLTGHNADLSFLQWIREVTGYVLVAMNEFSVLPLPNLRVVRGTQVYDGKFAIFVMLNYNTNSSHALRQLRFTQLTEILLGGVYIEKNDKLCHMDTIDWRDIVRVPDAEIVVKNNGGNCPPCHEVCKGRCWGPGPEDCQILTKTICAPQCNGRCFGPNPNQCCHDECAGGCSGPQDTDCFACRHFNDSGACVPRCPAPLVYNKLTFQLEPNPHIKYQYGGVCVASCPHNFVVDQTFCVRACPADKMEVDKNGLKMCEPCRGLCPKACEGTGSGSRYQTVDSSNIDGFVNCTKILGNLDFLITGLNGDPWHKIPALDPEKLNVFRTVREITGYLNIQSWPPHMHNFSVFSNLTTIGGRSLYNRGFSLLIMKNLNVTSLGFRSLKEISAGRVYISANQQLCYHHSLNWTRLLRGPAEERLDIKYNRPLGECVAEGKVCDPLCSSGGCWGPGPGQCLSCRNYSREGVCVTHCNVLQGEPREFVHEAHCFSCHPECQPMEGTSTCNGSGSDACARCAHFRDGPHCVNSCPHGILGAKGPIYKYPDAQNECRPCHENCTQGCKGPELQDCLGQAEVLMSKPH
T1 sequence (P21860 other isoform, or with tags, fused parts or gaps, form in doubt): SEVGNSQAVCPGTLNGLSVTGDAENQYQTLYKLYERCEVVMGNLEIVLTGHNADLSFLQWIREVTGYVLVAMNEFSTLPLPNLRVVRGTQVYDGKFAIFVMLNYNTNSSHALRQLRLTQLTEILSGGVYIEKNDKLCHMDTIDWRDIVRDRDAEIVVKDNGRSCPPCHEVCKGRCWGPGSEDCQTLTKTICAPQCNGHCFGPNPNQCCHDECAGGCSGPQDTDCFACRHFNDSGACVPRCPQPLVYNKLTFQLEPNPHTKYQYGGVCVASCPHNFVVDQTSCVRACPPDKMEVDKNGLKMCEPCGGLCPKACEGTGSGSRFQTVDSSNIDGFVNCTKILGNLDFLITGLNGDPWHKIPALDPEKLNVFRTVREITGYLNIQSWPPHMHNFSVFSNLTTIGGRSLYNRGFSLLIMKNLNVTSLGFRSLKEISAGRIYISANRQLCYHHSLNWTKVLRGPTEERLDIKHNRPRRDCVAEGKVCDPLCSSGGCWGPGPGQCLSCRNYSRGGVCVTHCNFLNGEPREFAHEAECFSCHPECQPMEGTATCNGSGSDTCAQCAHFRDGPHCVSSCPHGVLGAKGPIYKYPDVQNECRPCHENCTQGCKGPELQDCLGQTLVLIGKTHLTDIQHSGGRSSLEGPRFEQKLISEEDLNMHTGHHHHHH

B1: anti-HER3 Antibody A (antibody, human IgG1, kappa, V domains shown)
VH: EVQLVESGGGLVKPGGSLRLSCAASGFSLDTYTMIWVRQAPGKGLEWVGIIYVTYNTYYANWAKGRFTISRDDSKNTLYLQMNSLKTEDTAVYYCTRWGDQNGLDIWGQGTLVTVSS
VL: DIQMTQSPSSLSASVGDRVTITCQSSQRVYGNKNLAWYQQKPGKAPKLLIYFARTLASGVPSRFSGSGSGTDFTLTISSLQPEDFATYYCQGTYYGTNWYVGFGGGTKVEIKR
notes: IgG type; human IgG1 Fc with C-terminal lysine deletion is stated only in embodiment language
Consider B1, for which the results for the equilibrium dissociation constant (Kd) (in experiment [1]; with Rhesus mature HER3-ECD [2]; in experiment [3]) were 1.6 nM, 2.1 nM and 3 nM, respectively. The binding stoichiometry (in experiment [4]; with Rhesus mature HER3-ECD [5]; in experiment [6]) was ~2 moles of ligand per mole of antibody in each case.

As usually defined, the Kd is the constant that tells how readily two partners part at equilibrium. Lower therefore signals tighter binding.

These data come from patent WO2017015008A1 (dated 2017).
